From publication PMC9027224 (Diagnostics, 2022)
Read-outs that look alike come from different tables or passages of the source.

What was measured:
[1] = human, in vivo
Source text: Two peripheral intravenous catheters were placed, one for tracer injection and one in the contralateral arm for withdrawal of blood samples and administration of i.v. contrast agent. Electrocardiogram and vital signs as well as safety blood samples were monitored before and following [^68Ga]Ga-NODAGA-E[c(RGDyK)]2 injection. […] Furthermore, urine was collected for pharmacokinetic analysis and dosimetry in a subset of patients (Figure 1).

[2] = parameters: species or system human; conditions: in vivo, iv
Source text: Two peripheral intravenous catheters were placed, one for tracer injection and one in the contralateral arm for withdrawal of blood samples and administration of i.v. contrast agent. Electrocardiogram and vital signs as well as safety blood samples were monitored before and following [^68Ga]Ga-NODAGA-E[c(RGDyK)]2 injection. […] Furthermore, urine was collected for pharmacokinetic analysis and dosimetry in a subset of patients (Figure 1). The activity concentration of the urine and plasma was counted on Cobra II TM Gamma Counter (Packard, CT, USA). Blood and urine samples were analyzed on a Dionex UltiMate 3000 column-switching high-performance liquid chromatography (HPLC) system with a Posi-RAM Module 4 (ThermoFisher Scientific, Waltham, MA, USA). The full blood samples were centrifuged (3500 rpm, 4 min) and the supernatant plasma was collected and filtered through a […] syringe filter prior to the HPLC analysis. The HPLC analysis consisted of an extraction step and an analytical step, as previously described. During the extraction step, the plasma samples were passed through a shim-pack XR-ODS (30 × 4.6 mm, 2.2 μm). The valves were switched, and the sample was then analyzed on an Onyx monolithic column (C18, 50 × 4.6 mm). […]

[3] = parameters: species or system human; conditions: in vivo
Protocol: Dosimetry was based on the decay-uncorrected image sets from the 3 time points (10 patients) supplemented with sampled urine data (7 patients). For each patient, organ, and time point, tissue activity concentration (kBq/mL) was determined in VOIs defined on CT. Activity (per patient, organ and time) was estimated by multiplying concentration values by organ masses of the OLINDA adult phantom, normalized per injected MBq and scaled for patient weight. Time integrated activity coefficients (TIAC, unit h) for each patient and organ was determined by numerical integration and analytical extrapolation to infinity assuming only physical decay. The resulting organ TIACs were averaged over patients. All data were entered into OLINDA/EXM 2.0 software (Vanderbilt University, TN, USA and HERMES Medical Solutions, Stockholm, Sweden).
Urine was collected immediately after each scan in pre-weighted plastic bottles. The cumulated decay-corrected activity (MBq) of the excreted urine was plotted over time for all 7 subjects and data fitted to a one-phase exponential association. […] A detailed description of the dosimetry is available in Supplementary Material (Section S2).
testine, spleen, stomach contents, testes, thyroid, and upper large intestine. For each pa-
tient, organ, and time-point, tissue activity concentration (kBq/mL) was calculated as the
average of the mean values from 3 VOIs. Total activity (per patient, organ and time) was
estimated by multiplying these average values by organ masses of the OLINDA male
adult phantom. Activity values were normalized to 1MBq by dividing with injected
activity and scaled with the ratio of actual patient weight to the weight of the standard
model (73 kg). As a surrogate for red marrow activity, VOIs were drawn encompassing
large portions of the L3–L5 vertebrae. Time integrated activity coefficients (TIAC, for-
merly known as residence time; unit h) for each patient and organ was determined by nu-
merical integration up to the third (last) data point and analytical extrapolation to infinity
assuming only physical decay. Piecewise linearity was assumed from time zero up to the
second data point and a mono-exponential was used between the second and third data
points. The resulting organ TIACs were averaged over patients. All data were entered into
OLINDA/EXM 2.0 software (Vanderbilt Universi ty, and HERMES Medical Solutions).
Urine was collected immediately after each scan in pre-weighted plastic bottles and
for each individual voiding the weight (volume) was measured and a 500 μL sample was
drawn for activity measurement in a calibrated gamma well counter (Cobra II TM,
Gamma Counting Systems; PACKARD, Meriden, CT, USA).The cumulated decay cor-
rected activity (in MBq) of the excreted urine, normalized to 1 MBq of injection, was plot-
ted over time (in Excel) for all 7 subjects and data fitted to a one phase exponential asso-
ciation (exponential growing towards a limit). The resulting limit and half-life were used
as input to the bladder voiding model of OLINDA, yielding the TIAC for bladder con-
tents. In concordance with the actual setup a bladder voiding interval of 1 hour was se-
The value for “remainder tissue” was calculated as the total area (in h) for 1 MBq
minus the sum of the organ-specific values (except bladder) minus the value passed to
urine (based on the fitted model parameters). The fraction of the latter that is attributed to
the bladder depends on the voiding interval.
The output from OLINDA consists of absorbed doses for organs and effective dose
with weight factors according to ICRP 103 [3]. […]
3. The 2007 Recommendations of the International Commission on Radiological Protection. ICRP publication 103. Ann ICRP

integrin subtype αvβ3 = conditions: in vitro; unlabelled NODAGA-E[c(RGDyK)]2; ref Bentsen et al., unpublished data; read-out: affinity (KD); cited from earlier work
Source text: A large number of PET tracers with the RGD motif have been developed and tested preclinically. However, only a few have reached testing in clinical trials, and none have yet been employed for routine clinical use. The clinical translation of first-generation integrin-targeting PET tracers with ^18F, e.g., ^18F-Galacto-RGD, was hampered by complex radiochemistry. Thus, several approaches to optimize the production and tracer stability as well as tumor-binding properties have been investigated. Addressing the need for assessing integrin αvβ3, our group evaluated a number of PET tracers uti ...

[4] = in vivo; cited from earlier work
Source text: (§1) A secondary objective of our study was to assess [^68Ga]Ga-NODAGA-E[c(RGDyK)]2 uptake in tumors.

[5] = system: head and neck squamous cell carcinoma; conditions: 10 patients with head and neck squamous cell carcinoma; cited from earlier work
Source text: as §1

## N=C(N)NCCC[C@@H]1NC(=O)[C@H](CCCCNC(=O)CC[C@H](NC(=O)CCC(C(=O)O)N2CCN(CC(=O)O)CCN(CC(=O)O)CC2)C(=O)NCCCC[C@@H]2NC(=O)[C@@H](Cc3ccc(O)cc3)NC(=O)[C@H](CC(=O)O)NC(=O)CNC(=O)[C@H](CCCNC(=N)N)NC2=O)NC(=O)[C@@H](Cc2ccc(O)cc2)NC(=O)[C@H](CC(=O)O)NC(=O)CNC1=O (stereo partly drawn) [[^68Ga]Ga-NODAGA-E[c(RGDyK)]2, metal not drawn]
[1]
  acute or long-term effects on blood parameters or organ function: No acute or long-term effects
  changes in vital signs, laboratory studies or electrocardiograms: No significant changes
[2]; human
  plasma half-life: 8.6 min
[2]
  plasma metabolites by reversed-phase HPLC: two unknown polar metabolites
[3]
  Mean Absorbed Dose, Adrenals: 0.0245 mGy/MBq
  Mean Absorbed Dose, Brain: 0.00252 mGy/MBq
  Mean Absorbed Dose, Breasts: 0.0105 mGy/MBq
  Mean Absorbed Dose, Esophagus: 0.0112 mGy/MBq
  Mean Absorbed Dose, Eyes: 0.00929 mGy/MBq
  Mean Absorbed Dose, Gallbladder Wall: 0.0143 mGy/MBq
  Mean Absorbed Dose, Heart Wall: 0.0146 mGy/MBq
  Mean Absorbed Dose, Kidneys: 0.0627 mGy/MBq
  Mean Absorbed Dose, Left Colon: 0.0136 mGy/MBq
  Mean Absorbed Dose, Liver: 0.0279 mGy/MBq
  Mean Absorbed Dose, Lungs: 0.00792 mGy/MBq
  Mean Absorbed Dose, Osteogenic Cells: 0.0136 mGy/MBq
  Mean Absorbed Dose, Ovaries: 0.0154 mGy/MBq
  Mean Absorbed Dose, Pancreas: 0.0144 mGy/MBq
  Mean Absorbed Dose, Prostate: 0.0133 mGy/MBq
  Mean Absorbed Dose, Rectum: 0.0151 mGy/MBq
  Mean Absorbed Dose, Red Marrow: 0.015 mGy/MBq
  Mean Absorbed Dose, Right Colon: 0.0131 mGy/MBq
  Mean Absorbed Dose, Salivary Glands: 0.00996 mGy/MBq
  Mean Absorbed Dose, Small Intestine: 0.0603 mGy/MBq
  Mean Absorbed Dose, Spleen: 0.0504 mGy/MBq
  Mean Absorbed Dose, Stomach Wall: 0.0263 mGy/MBq
  Mean Absorbed Dose, Testes: 0.0192 mGy/MBq
  Mean Absorbed Dose, Thymus: 0.011 mGy/MBq
  Mean Absorbed Dose, Thyroid: 0.0663 mGy/MBq
  Mean Absorbed Dose, Total Body: 0.0133 mGy/MBq
  Mean Absorbed Dose, Urinary Bladder Wall: 0.126 mGy/MBq
  Mean Absorbed Dose, Uterus: 0.018 mGy/MBq
  effective dose: 0.0218 mSv/MBq
  effective dose (radiation exposure) at injected activity of 200 MBq: 4.4 mSv
  kidney radiation: 0.063 mGy/MBq
  radiation dose, kidneys: 0.063 mSv/MBq
  radiation dose, thyroid: 0.066 mSv/MBq
  radiation dose, urinary bladder wall: 0.126 mSv/MBq

## NODAGA-E[c(RGDyK)]2 (head to tail) [unlabelled precursor of the tracer, obtained as acetate from ABX GmbH]
Integrin subtype αvβ3
  Kd: 0.075 nM

## [^68Ga]Ga-NODAGA-RGDyK [monomeric RGD PET tracer]
[4]
  effective dose: 19.8 µSv/MBq
  kidney radiation: 0.046 mGy/MBq
[5]
  mean SUVmax in the primary tumor: 3.9 ± 1.1
